In paper PMC5764952 (2018) one finds ratio to parent data, which are given here for 14 variants.

B1: Untagged murine saposin A (SapA) [mouse] / His6-tagged murine β-galactocerebrosidase (GALC) [modified: glycosylated; glycosylated] [mouse] (parent complex)
chain 1: MGKSLPCDICKTVVTEAGNLLKDNATQEEILHYLEKTCEWIHDSSLSASCKEVVDSYLPVILDMIKGEMSNPGEVCSALNLCQSLQE
chain 2: YVLDDSDGLGREFDGIGAVSGGGATSRLLVNYPEPYRSEILDYLFKPNFGASLHILKVEIGGDGQTTDGTEPSHMHYELDENYFRGYEWWLMKEAKKRNPDIILMGLPWSFPGWLGKGFSWPYVNLQLTAYYVVRWILGAKHYHDLDIDYIGIWNERPFDANYIKELRKMLDYQGLQRVRIIASDNLWEPISSSLLLDQELWKVVDVIGAHYPGTYTVWNAKMSGKKLWSSEDFSTINSNVGAGCWSRILNQNYINGNMTSTIAWNLVASYYEELPYGRSGLMTAQEPWSGHYVVASPIWVSAHTTQFTQPGWYYLKTVGHLEKGGSYVALTDGLGNLTIIIETMSHQHSMCIRPYLPYYNVSHQLATFTLKGSLREIQELQVWYTKLGTPQQRLHFKQLDTLWLLDGSGSFTLELEEDEIFTLTTLTTGRKGSYPPPPSSKPFPTNYKDDFNVEYPLFSEAPNFADQTGVFEYYMNNEDREHRFTLRQVLNQRPITWAADASSTISVIGDHHWTNMTVQCDVYIETPRSGGVFIAGRVNKGGILIRSATGVFFWIFANGSYRVTADLGGWITYASGHADVTAKRWYTLTLGIKGYFAFGMLNGTILWKNVRVKYPGHGWAAIGTHTFEFAQFDNFRVEAAR

Variants of B1 are the subject of this experiment. In words: pull-down (immobilised GALC, Coomassie SDS-PAGE, quantified); in the presence of Tween-20; n = 3; read off a plot.
In the case of chain 1 MGKSLPCDICKTVVTEAGNLLKDNATQEEILHYLEKTCEWIHDSSLSASCKEVVKSYLPVILDMIKGEMSNPGEVCSALNLCQSLQE, the ratio to parent is roughly 0.12.

On to chain 1 MGKSLPCDICKTVVTEAGNLLKDNATQEEIRHYLEKTCEWIHDSSLSASCKEVVDSYLPVILDMIKGEMSNPGEVCSALNLCQSLQE, for which the ratio to parent was roughly 0.04.

For the variant chain 1 MGKSLPCDICKTVVTEAGNLLKDNATQEEINHYLEKTCEWIHDSSLSASCKEVVDSYLPVILDMIKGEMSNPGEVCSALNLCQSLQE, the ratio to parent was roughly 0.13.

With chain 1 MGKSLPCDICKTVVTEAGNLLKDNATQKEILHYLEKTCEWIHDSSLSASCKEVVDSYLPVILDMIKGEMSNPGEVCSALNLCQSLQE, the ratio to parent is roughly 0.06.

For chain 1 MGKSLPCDICKTVVTEAGNLLKDNATQEEILHYLEKTCEWIHDSSLSASCKEVVDSYLPVILKMIKGEMSNPGEVCSALNLCQSLQE, the ratio to parent is roughly 0.03.

On to chain 1 MGKSLPCDICKTVVTEAGNLLEDNATQEEILHYLEKTCEWIHDSSLSASCKEVVDSYLPVILDMIKGEMSNPGEVCSALNLCQSLQE, for which the ratio to parent was roughly 0.05.

As for chain 1 MGKSLPCDICKTVVTEAGNLLKDNATQEEILHYLRKTCEWIHDSSLSASCKEVVDSYLPVILDMIKGEMSNPGEVCSALNLCQSLQE, the ratio to parent was roughly 0.21.

As to chain 1 MGKSLPCDICKTVVTEAGNLLKDNATKEEILHYLEKTCEWIHDSSLSASCKEVVDSYLPVILDMIKGEMSNPGEVCSALNLCQSLQE, the ratio to parent is roughly 0.08.

In the case of chain 1 MGKSLPCDICKTVVTEAGNLLKDNATQEEILHYLEKTCEWIHDSSLSASCKEVVDSYLPVILDMIEGEMSNPGEVCSALNLCQSLQE, the ratio to parent is roughly 0.77.

Take chain 1 MGKSLPCDICKTVVTEAGNLLKDNATQEEILHYLEKTCEWIHDSSLSASCKEVVDSYLPVILDMIKGKMSNPGEVCSALNLCQSLQE: the ratio to parent was roughly 1.1.

Turning to chain 1 MGKSLPCDICKTVVTEAGNLLKDNATQEEILHYLEKTCEWIHDSSLSASCKKVVDSYLPVILDMIKGEMSNPGEVCSALNLCQSLQE, the ratio to parent is roughly 0.06.

With chain 1 MGKSLPCDICKTVVTEAGNLLKDNATQEEILHYLEKTCESIHDSSLSASCKEVVDSYLPVILDMIKGEMSNPGEVCSALNLCQSLQE, the ratio to parent was roughly 0.77.

Regarding chain 1 MGKSLPCDICKTVVTEAGNLLKDNATQEEILHYLEKTCEFIHDSSLSASCKEVVDSYLPVILDMIKGEMSNPGEVCSALNLCQSLQE, the ratio to parent is roughly 0.81.

Consider chain 1 MGKSLPCDICKTVVTEAGNLLKDNATQEEILHYLEKTCEDIHDSSLSASCKEVVDSYLPVILDMIKGEMSNPGEVCSALNLCQSLQE, for which the ratio to parent was roughly 0.8.
